Data as given in paper doi:10.1101/2023.10.09.561567 (bioRxiv, 2023).
Values belong to the molecule of their own block, whether it stands above or below them.

What was measured:
[1] = target: IL-33 released from CMT-64 cells (mouse (endogenous in CMT-64)) (UniProt Q8BVZ5); assay: ELISA
[2] = target: HpARI1 (Heligmosomoides polygyrus bakeri); assay: SPR
[3] = target: HpARI2 (Heligmosomoides polygyrus bakeri); assay: SPR
[4] = target: HpARI3 (Heligmosomoides polygyrus bakeri); assay: SPR
[5] = target: T1, IL-33 released from CMT-64 cells (mouse (endogenous in CMT-64), UniProt Q8BVZ5 1-266); assay: ELISA
T1 sequence (looked up): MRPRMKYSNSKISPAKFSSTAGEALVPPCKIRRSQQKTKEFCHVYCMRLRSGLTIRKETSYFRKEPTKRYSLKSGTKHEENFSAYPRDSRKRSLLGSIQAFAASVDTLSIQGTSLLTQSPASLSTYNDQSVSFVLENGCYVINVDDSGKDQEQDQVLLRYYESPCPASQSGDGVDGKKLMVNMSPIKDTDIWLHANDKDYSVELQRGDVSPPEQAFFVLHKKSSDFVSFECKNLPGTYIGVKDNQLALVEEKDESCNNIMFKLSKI

- IC50 [1]: 0.8 nM
Molecule: HpARI1 (natural protein)

- Kd [2]: 0.04 nM
- Kd [3]: 0.04 nM
- Kd [4]: 0.4 nM
Molecule: mouse IL-33 (purified) (from UniProt Q8BVZ5 1-266) (ligand)

- IC50 [1]: 0.8 nM
Molecule: HpARI2 (natural protein)

- IC50 [5]: ~6 nM
B1: HpARI3 (natural protein, Heligmosomoides polygyrus bakeri, UniProt A0A183GRJ4 1-248, looked up)
chain: SLGCKFTDVEKDKGYTGMLVGGKRRESAANGQKVELVCGRGNHNYTCKSGILTEESYRQGRCGCEGILQMLLDKPKDSPMYDSVTYDPTPNTPTTVGKDGIWNGVDYRNGSTVRPYCDTGPIINGSPKAVCVSGKWVPKLGDCPKMCSISSLKENGKFLNVTATTTGDELNPRPREQTLIPIVRKVDKDKVQHGVKVVALCKAKYSTTAAENVQKFECDNGKWKPKPVPCS
modifications: chemically biotinylated with EZ-Link Sulfo-NHS-Biotin (for SPR only)
